These results are taken from patent US7446182 (University of Texas, dated 2008).

“And” between values parts separate entries of the source, which are not always exact repeats. Equal values may be shown once.

Assay [1] addresses T1, Bacillus anthracis protective antigen (PA), 83 kDa polypeptide (Bacillus anthracis, UniProt P13423 30-764).
Assay [2] deals with T1, Bacillus anthracis protective antigen …. The source holds these as a separate data set.
For assay [3] the target is unchanged. This is another data set of the same source.

T1 sequence (P13423 30-764 limits assumed): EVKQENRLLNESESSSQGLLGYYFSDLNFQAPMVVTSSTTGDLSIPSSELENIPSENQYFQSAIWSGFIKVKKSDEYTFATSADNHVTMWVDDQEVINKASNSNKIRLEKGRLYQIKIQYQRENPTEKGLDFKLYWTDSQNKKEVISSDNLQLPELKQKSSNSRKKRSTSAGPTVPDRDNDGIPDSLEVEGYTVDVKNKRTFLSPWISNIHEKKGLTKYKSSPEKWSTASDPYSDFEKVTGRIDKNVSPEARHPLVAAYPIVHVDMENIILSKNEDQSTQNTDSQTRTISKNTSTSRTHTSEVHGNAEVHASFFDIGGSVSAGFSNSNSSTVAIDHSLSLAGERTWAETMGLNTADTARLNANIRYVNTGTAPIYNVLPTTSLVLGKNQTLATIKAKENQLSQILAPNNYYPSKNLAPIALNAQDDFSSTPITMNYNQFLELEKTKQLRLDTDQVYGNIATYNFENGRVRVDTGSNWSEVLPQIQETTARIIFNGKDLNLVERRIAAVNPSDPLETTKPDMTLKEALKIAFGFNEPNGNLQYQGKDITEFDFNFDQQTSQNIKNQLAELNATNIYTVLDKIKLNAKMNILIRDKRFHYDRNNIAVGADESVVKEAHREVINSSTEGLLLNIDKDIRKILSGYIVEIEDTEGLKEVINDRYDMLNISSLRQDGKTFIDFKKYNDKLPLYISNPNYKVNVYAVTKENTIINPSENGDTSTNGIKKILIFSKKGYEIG

B1: A2E scFv (scFv)
scFv: DIQMTQTTSSLSASLGDRVTISCRASQDIRNYLNWYQQKPDGTVKLLIYYTSRLQPGVPSRFSGSGSGTDYSLTISNQEQEDIGTYFCQQGNTLPWTGFFFTKLEIKRGGGGSGGGGSGGGGSGGGGSEVQLQQSGPELVKPGASVKISCKIDSGYAFSSSWMNWVKQRFGQGLEWIGRIYPGDGDTNYNGKFKGKATLTADKSSSTAYMQLSSLTSVDSAVYFCARSGLLRYAMDYWGQGTSVTVSS
One may read the EC50 (read off the curve) as the concentration that produces a half-maximal response. Read a low EC50 (read off the curve) as a more potent agent. The term Kd denotes the equilibrium constant for the complex coming apart. For orientation: koff means the rate constant with which the complex falls apart. Read a low koff as slow dissociation. As usually defined, the kon is the second-order rate constant of association. Read a high kon as fast association. Regarding B1, the “EC50 (read off the curve)” value in assay [1] is ~0.02 µg/mL and ~0.05 µg/mL. In assay [2], the “fold higher affinity than the 14B7 scFv” value came out at 3 fold and the “fold lower equilibrium dissociation constant than 14B7” value was determined as 3 fold. In assay [3], this molecule registered a Kd of 4 nM, a koff of 0.001 s⁻¹ and an on-rate (kon) of 300000 M⁻¹ s⁻¹.
